Results on one protein are retold here after article PMC11554683, “GNG5 is a novel regulator of Aβ42 production in Alzheimer’s disease” (Cell Death & Disease, 2024).

This data set deals with the molecule itself. The experiment in a line: western blot (band sizes); recombinant GNG5 (purity >95%) used to assess anti-GNG5 antibodies (Fig. S3B). For orientation: In western blotting, separated proteins are transferred to a membrane and probed.

In general, stoichiometry N refers to the number of molecules, sites or subunits per partner or assembly.

B1: recombinant GNG5 (G protein subunit gamma 5) (natural protein, UniProt P63218 1-68, looked up)
chain: MSGSSSVAAMKKVVQQLRLEAGLNRVKVSQAAADLKQFCLQNAQHDPLLTGVSSSTNPFRPQKVCSFL
notes: G protein subunit gamma 5 (GNG5); Purity >95% is stated; also called purified GNG5; homotrimer-GNG5; source: E. coli BL21 (DE3), purified (HisTrap HP, PD-10)
Consider B1, for which the “stoichiometry N” value is 3.
